Molecular target: protein A-derived Z-domain of the mAbSelect SuRe resin
Assay: protein A (Z-domain) affinity chromatography, pH-gradient elution

human IgG1 T307P, L309Q (antibody) showed an elution pH from the protein A (Z-domain) column of 4.48 pH.
